In this assay the test system is APC/C^Apc10-4A, Cdh1. Nature of the assay: SMOR assay, yeast APC/C^Apc10-4A, Cdh1. The assay is classed as binding, Saccharomyces cerevisiae. As for the experimental part: Yeast strains were derivatives of W303 and are listed in Supplementary Table 2. For APC/C purification, we used a strain carrying Cdc16-TAP and lacking Cdh1 (DOM1126); in most experiments, the strain also carried Apc1-GFP (NHY13). Yeast were grown in YPD media to OD600 = 0.8, collected and flash-frozen. Cells were lysed by bead beating in lysis buffer A (50 mM HEPES pH 7.5, 150 mM KCl, 10% glycerol, 0.2% Triton X-100, 63 µM B-glycerophosphate, 48 µM sodium fluoride, 1 µg ml^−1 pepstatin A, 1 µg ml^−1 leupeptin, 1 µg ml^−1 aprotinin, 1 mM PMSF, 1 mM DTT, 0.5 mM EDTA) and APC/C was purified using magnetic IgG beads. The beads were washed using wash buffer A (20 mM HEPES pH 7.5, 150 mM KCl, 10% Glycerol, 0.05% Triton X-100). After incubation with purified Cdh1 or Cdc20, the APC/C was cleaved off the beads with TEV protease in wash buffer A with 0.05% Tween-20 (for single-molecule studies) or 0.05% Triton X-100 (for ensemble assays such as ubiquitylation) and used immediately.
For all SMOR experiments, 24 × 50 mm high precision glass coverslips (Bioscience Tools) and drilled microscope slides were passivated with a combination of PEG and PEG-biotin (coverslips) or PEG only (slides) following a previously published protocol for SiMPull[31]. Reaction chambers (~20 µl) were created using double-sided tape and epoxy. Protein was immobilized on the surface with 0.2 mg ml^−1 NeutrAvidin in buffer C (20 mM HEPES pH 7.5, 150 mM KCl, 10% glycerol, 0.05% Tween-20, 1 mM DTT). Excess NeutrAvidin was washed away and incubated with either biotin-conjugated mouse monoclonal anti-Strep-Tag II antibody (LSBio, Cat. No. LS-C203632-100) or biotin-conjugated rabbit polyclonal anti-GFP antibody (Rockland, Cat. No. 600-406-215) diluted in buffer C + BSA (0.1 mg ml^−1; Molecular Biology Grade Bovine Serum Albumin). Activator WD40 and activated APC/C (typically 50 µl containing about 65 ng APC/C, of which only a small fraction is immobilized on the glass) were immobilized using anti-Strep-Tag II, while APC/C alone was immobilized with anti-GFP. SMOR results were similar when performed in the buffer (wash buffer B) used in polarization anisotropy.
To capture dynamic protein–protein interactions, dye-labeled substrate diluted in buffer C + BSA was added to the chamber containing immobilized proteins. Interactions were imaged by TIRF microscopy as described below. For optimal signal-to-noise ratio, peptide concentration was no greater than 1 nM. […]
Microscopy was performed with a Nikon Eclipse TE2000-E with Perfect Focus with a 100 × 1.49na oil, Apo TIRF DIC N2, 0.13-0.2, WD0.12 objective. Movies were recorded using the Andor iXon DU-897E-CSO. […]

This is an account of results in paper PMC8764033, “Single-molecule analysis of specificity and multivalency in binding of short linear substrate motifs to the APC/C” (Nature Communications, 2022).

“And” between values parts separate entries of the source, which are not always exact repeats. Identical values can stand only once.

Chain of APC/C^Apc10-4A, Cdh1 (P53197 whole entry): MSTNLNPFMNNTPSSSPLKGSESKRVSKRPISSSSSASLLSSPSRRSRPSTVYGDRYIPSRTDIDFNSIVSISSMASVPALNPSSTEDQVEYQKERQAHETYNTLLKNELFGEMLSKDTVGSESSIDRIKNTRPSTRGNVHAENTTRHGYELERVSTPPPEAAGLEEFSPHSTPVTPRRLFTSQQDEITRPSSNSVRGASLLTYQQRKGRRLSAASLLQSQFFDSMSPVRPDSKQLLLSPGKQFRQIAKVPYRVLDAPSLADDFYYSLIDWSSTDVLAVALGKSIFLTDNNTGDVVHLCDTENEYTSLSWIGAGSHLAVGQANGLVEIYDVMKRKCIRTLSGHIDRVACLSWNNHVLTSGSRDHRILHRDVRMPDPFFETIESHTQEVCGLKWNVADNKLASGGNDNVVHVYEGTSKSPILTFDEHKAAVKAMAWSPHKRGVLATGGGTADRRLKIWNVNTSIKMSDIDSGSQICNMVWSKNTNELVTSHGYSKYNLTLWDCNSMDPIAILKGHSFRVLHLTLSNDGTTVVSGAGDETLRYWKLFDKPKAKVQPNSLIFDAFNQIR

B1: Hsl1^Halo KEN & D: Hsl1 fragment (amino acids 667–872) with C-terminal HaloTag, JF549-labeled (protein)
chain: QNSASKRSLYSLQSISKRSLNLNDLLVFDDPLPSKKPASENVNKSEPHSLESDSDFEILCDQILFGNALDRILEEEEDNEKERDTQRQRQNDTKSSADTFTISGVSTNKENEGPEYPTKIEKNQFNMSYKPSENMSGLSSFPIFEKENTLSSSYLEEQKPKRAALSDITNSFNKMNKQEGMRIEKKIQREQLQKKNDRPSPLKPIQ
modifications: JF549 or JF646 dye covalently bound to the HaloTag; left off: HaloTag, C-terminal, kept | TAP, C-terminal, cleaved
notes: Hsl1 fragment (amino acids 667–872) with C-terminal HaloTag, JF549-labeled
In the case of B1, the “binding (in words)” value was “This boost in affinity was not seen in the Apc10-4A mutant”. For the setting “Supplementary Table 1, replicate 1 (movie listed first)”, the “Dwell Time” value was found to be 42.881 ± 2.489 s. In addition, the “Dwell Time” value (Supplementary Table 1, replicate 2 (movie listed second)) worked out at 75.919 ± 3.159 s. The mean dwell time (representative of two independent experiments, ± SE, ligand ≤1 nM, buffer C + BSA) was 75.9 ± 3 s and 75.9 s.
